Here are results for 2 substances from article PMC3380823.

Assay [1] deals with CrPLC C7A mutant (Chlamydomonas reinhardtii). As to the kind of experiment: SEC; HiLoad 16/60 Superdex 200 prep grade and Superose 12 10/300 GL analytical columns, PBS, 1 ml/min, 4°C, no reducing agent; calibrated with molecular weight standards; 5 to 50 µM on the analytical column; monomer and dimer fractions reloaded.
In assay [2] the target is recombinant phospholipase C of Chlamydomonas reinhardtii (CrPLC), wild type (Chlamydomonas reinhardtii). Described as above.

Turning to CrPLC C7A mutant (enzyme), the percent of dimerization disrupted in assay [1] was determined as 95%.
Usually stoichiometry N stands for a count of units in the complex or per binding partner. With “recombinant phospholipase C of Chlamydomonas reinhardtii (CrPLC), wild type (enzyme)”, in assay [2], the stoichiometry N amounted to 2.
